# Reference: patent US20090275047A1 (published 2009)
# B1: human soluble adenylate cyclase catalytic domain, construct solAC-2056 (M1-V469 with non-cleavable C-terminal His6 tag) (enzyme)
# chain: MNTPKEEFQDWPIVRIAAHLPDLIVYGHFSPERPFMDYFDGVLMFVDISGFTAMTEKFSSAMYMDRGAEQLVEILNYHISAIVEKVLIFGGDILKFAGDALLALWRVERKQLKNIITVVIKCSLEIHGLFETQEWEEGLDIRVKIGLAAGHISMLVFGDETHSHFLVIGQAVDDVRLAQNMAQMNDVILSPNCWQLCDRSMIEIESVPDQRAVKVNFLKPPPNFNFDEFFTKCTTFMHYYPSGEHKNLLRLACTLKPDPELEMSLQKYVMESILKQIDNKQLQGYLSELRPVTIVFVNLMFEDQDKAEEIGPAIQDAYMHITSVLKIFQGQINKVFMFDKGCSFLCVFGFPGEKVPDELTHALECAMDIFDFCSQVHKIQTVSIGVASGIVFCGIVGHTVRHEYTVIGQKVNLAARMMMYYPGIVTCDSVTYNGSNLPAYFFKELPKKVMKGVADSGPLYQYWGRTEKVHHHHHH
# modifications: possible acetylation of the N-terminus at Met1 (electron density peak, not modelled)
# notes: Expressed in Hi 5 insect cells and crystallised in space group P63; The protein-protein contact recorded is between symmetry-related copies of this molecule in the crystal; also called construct 2056; solAC catalytic domain
# Biological target: the molecule itself
# Test: X-ray crystal structure; crystal lattice contact between symmetry-related molecules
protein,measurement,value
B1,binding result,binds
